Measured values: patent publication US20250270343A1 (Alector, published 2025)
Residue numbers refer to the chain shown, from its start.

T1: full-length untagged human GPNMB expressed on cells (human, UniProt Q14956 23-572)
T1 sequence: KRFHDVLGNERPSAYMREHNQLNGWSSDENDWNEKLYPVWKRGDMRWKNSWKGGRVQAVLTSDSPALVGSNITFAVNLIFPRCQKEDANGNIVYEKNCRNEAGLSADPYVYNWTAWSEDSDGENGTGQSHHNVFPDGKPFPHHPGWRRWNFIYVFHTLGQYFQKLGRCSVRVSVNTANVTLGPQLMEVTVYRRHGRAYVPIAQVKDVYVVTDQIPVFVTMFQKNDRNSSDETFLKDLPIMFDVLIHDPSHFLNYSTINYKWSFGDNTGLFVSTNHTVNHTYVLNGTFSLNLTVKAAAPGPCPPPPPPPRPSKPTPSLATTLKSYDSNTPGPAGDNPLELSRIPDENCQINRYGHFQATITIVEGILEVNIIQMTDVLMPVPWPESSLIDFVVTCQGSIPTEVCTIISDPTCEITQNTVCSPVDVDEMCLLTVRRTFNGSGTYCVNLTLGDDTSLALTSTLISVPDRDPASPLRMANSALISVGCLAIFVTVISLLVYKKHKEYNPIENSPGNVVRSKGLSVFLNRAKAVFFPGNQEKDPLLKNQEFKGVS

T2: soluble mouse GPNMB (recombinant extracellular domain) (mouse, UniProt Q99P91 23-502)
T2 construct: also called moGPNMB; not shown: C-terminal polyhistidine or Avi-His tag
T2 sequence: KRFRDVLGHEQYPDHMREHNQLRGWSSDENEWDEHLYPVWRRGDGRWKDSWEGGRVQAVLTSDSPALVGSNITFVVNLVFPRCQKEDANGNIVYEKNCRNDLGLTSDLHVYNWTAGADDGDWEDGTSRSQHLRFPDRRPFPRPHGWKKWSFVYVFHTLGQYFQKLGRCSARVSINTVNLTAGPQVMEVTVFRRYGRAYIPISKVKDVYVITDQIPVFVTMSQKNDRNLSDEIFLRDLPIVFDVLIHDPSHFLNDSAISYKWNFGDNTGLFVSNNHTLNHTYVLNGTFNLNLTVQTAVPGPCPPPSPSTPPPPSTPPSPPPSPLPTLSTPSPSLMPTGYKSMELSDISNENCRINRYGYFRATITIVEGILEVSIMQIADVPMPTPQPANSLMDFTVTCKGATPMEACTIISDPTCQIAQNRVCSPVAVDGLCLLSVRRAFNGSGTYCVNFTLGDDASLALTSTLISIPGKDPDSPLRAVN

T3: soluble human GPNMB (recombinant extracellular domain) (human, UniProt Q14956 23-498)
T3 construct: also called huGPNMB; recombinant human GPNMB extracellular domain; not shown: C-terminal polyhistidine or Avi-His tag
T3 sequence: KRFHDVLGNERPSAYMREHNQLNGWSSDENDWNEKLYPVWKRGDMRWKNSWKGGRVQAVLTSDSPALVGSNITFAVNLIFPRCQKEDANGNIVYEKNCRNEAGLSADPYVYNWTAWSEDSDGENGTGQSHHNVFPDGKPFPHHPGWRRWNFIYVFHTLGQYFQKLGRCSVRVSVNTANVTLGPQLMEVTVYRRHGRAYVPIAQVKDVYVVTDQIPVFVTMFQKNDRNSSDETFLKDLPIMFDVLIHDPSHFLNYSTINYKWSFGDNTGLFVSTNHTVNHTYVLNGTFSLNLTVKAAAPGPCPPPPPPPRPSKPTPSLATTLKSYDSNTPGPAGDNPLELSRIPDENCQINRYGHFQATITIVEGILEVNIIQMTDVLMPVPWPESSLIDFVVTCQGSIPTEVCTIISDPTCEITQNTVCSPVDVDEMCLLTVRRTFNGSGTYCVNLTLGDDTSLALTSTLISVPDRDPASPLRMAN

T4: soluble cynomolgus GPNMB (recombinant extracellular domain) (cynomolgus, UniProt Q14956 23-499 (human entry), limits assumed)
T4 chain: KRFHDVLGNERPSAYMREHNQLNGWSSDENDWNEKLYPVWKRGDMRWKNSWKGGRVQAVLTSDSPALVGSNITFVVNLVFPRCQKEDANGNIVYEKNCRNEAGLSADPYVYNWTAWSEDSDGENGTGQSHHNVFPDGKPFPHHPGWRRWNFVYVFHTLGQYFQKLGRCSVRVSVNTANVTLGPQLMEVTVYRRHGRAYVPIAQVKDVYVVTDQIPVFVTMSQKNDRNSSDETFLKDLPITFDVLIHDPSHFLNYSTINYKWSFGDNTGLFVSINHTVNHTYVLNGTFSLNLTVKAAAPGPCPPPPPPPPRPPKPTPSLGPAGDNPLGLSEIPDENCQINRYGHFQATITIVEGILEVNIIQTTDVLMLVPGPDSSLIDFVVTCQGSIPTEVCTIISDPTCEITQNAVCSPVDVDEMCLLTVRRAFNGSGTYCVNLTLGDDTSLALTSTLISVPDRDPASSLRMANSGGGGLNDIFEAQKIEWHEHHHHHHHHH

B1: anti-GPNMB antibody GPN-96 (antibody, V domains shown)
VH: QVQLVQSGAEVKKPGASVKVSCKASGYTFTSYWMHWVRQAPGQGLEWMGEINPYDQRTNYAQKFQGRVTMTVDKSTSTVYMELSSLRSEDTAVYYCARSTGNYAWFAYWGQGTLVTVSS
VL: DIVMTQSPDSLAVSLGERATINCKASQDVSPSLAWYQQKPGQPPKLLIYRASYRYTGVPDRFSGSGSGTDFTLTISSLQAEDVAVYYCQQHYSIPLTFGGGTKVEIK
B2: anti-GPNMB antibody GPN-94 (antibody, V domains shown)
VH: B1 VH
VL: B1 VL with A25T, R50S, Y53K
B3: anti-GPNMB antibody GPN-95 (antibody, V domains shown)
VH: B1 VH
VL: B1 VL with A25T, R50S, S52R, T97Q
notes: also called PGN-95
B4: anti-GPNMB antibody GPN-93 (antibody, V domains shown)
VH: B1 VH
VL: B1 VL with A25T, R50S, Y53K, T97Q
B5: anti-GPNMB antibody GPN-82 (antibody, V domains shown)
VH: QVQLQESGPGLVKPSETLSLTCTVSGISITTGNYRWSWIRQPPGKGLEWIGYIYYSGTIIYNPSLKSRVTITRDTSKNQFSLELSSVTAADTAVYYCARDLTHWYFDVWGQGTLVTVSS
VL: DIVMTQSPDSLAVSLGERATINCKSSRSVDYYGIGFLNWYQQKPGQPPKLLIYATSTQGSGVPDRFSGSGSGTDFTLTISSLQAEDVAVYYCQQQKEVPPTFGGGTKVEIK
B6: anti-GPNMB antibody GPN-92 (antibody, V domains shown)
VH: B1 VH with Y54S, Q56G, T100G
VL: B1 VL with R50S
notes: humanized GPN-08

biological target: T1, full-length untagged human GPNMB …; test: cell-based or functional assay

| Inflammasome: Fold Decrease IL-1β (max response at 0.3 µg/ml) [fold] | Binder |
| --- | --- |
| 0.525 | B1 |
| 0.532 | B2 |
| 0.45 | B3 |
| 0.594 | B4 |
| 0.378 | B5 |

biological target: T2, soluble mouse GPNMB (recombinant …); test: SPR Biacore T200, IgG captured on Protein A/G; nb = no binding observed

| Binder | binding result |
| --- | --- |
| B6 | no binding (tested: 300 nM highest analyte concentration) |
| B1 | no binding (tested: 300 nM highest analyte concentration) |
| B2 | no binding (tested: 300 nM highest analyte concentration) |
| B3 | no binding (tested: 300 nM highest analyte concentration) |
| B4 | no binding (tested: 300 nM highest analyte concentration) |

biological target: T1, full-length untagged human GPNMB …; test: cell-based or functional assay; remark: another data set of the same source

| EC50 GCase [nM] | Fold Increase GCase (max response at 1 µg/ml) [fold] | EC50 Lyso Tracker [nM] | Fold Decrease Lyso Tracker (max response at 1 µg/ml) [fold] | Binder |
| --- | --- | --- | --- | --- |
| 0.27 | 1.25 |  |  | B6 |
| 0.23 | 1.31 |  |  | B1 |
| 0.54 | 1.4 |  |  | B2 |
| 0.23 | 1.33 |  |  | B3 |
| 0.5 | 1.45 |  |  | B4 |
| 0.365 | 1.54 | 0.64 | 0.569 | B5 |

biological target: T3, soluble human GPNMB (recombinant …); test: SPR Biacore, IgG captured
Experimental: (§1) Binding kinetics of the humanized and affinity matured anti-GPNMB antibodies described above were evaluated using the Biacore T200 (Cytiva). Briefly, IgGs were diluted to 10 μg/mL and captured using a Protein A/G (ThermioFisher, #21186) surface on a CM5 chip that was prepared by amine coupling according to the instrument manufacturer's recommendations. The captured antibodies were tested for their ability to bind human, cynomolgus monkey, and mouse GPNMB recombinant proteins as follows.
(§2) Human, cynomolgus, and mouse GPNMB analytes were diluted in running buffer (HBS-EP+, Teknova, #8022, with 0.5 mg/ml BSA, MP Biomedicals LLC, #820451), to a concentration of 300 nM, then diluted 3-fold serially to 100 nM, 33 nM, and 11 nM. Each sample was injected for 2 minutes to allow association, followed by dissociation in buffer alone for 10 minutes. Each sample injection was followed by the regeneration of the chip with three 30-second injections of 10 mM glycine, pH 1.7. Fresh antibody was captured at the beginning of each cycle.
(§3) Data were analyzed using Biacore evaluation software to generate kinetic constants. The equilibrium dissociation constants (KD) were calculated from the fitted association and dissociation rate constants (k-on and k-off) for each of the anti-GPNMB antibodies.

| Kd [nM] | koff [s⁻¹] | kon [M⁻¹ s⁻¹] | Binder |
| --- | --- | --- | --- |
| 66.5 | 0.005 | 75000 | B6 |
| 2.5 | 0.0002 | 78000 | B1 |
| 5.4 | 0.00042 | 78000 | B2 |
| 7.3 | 0.00053 | 73000 | B3 |
| 8.7 | 0.00059 | 68000 | B4 |
| 11.9 | 0.0024 | 200000 | B5 |

biological target: T2, soluble mouse GPNMB (recombinant …); test: SPR Biacore, IgG captured
Experimental: as §1, §2, §3

| Kd [nM] | koff [s⁻¹] | kon [M⁻¹ s⁻¹] | Binder |
| --- | --- | --- | --- |
| 2.6 | 0.00039 | 150000 | B5 |

Biological target: T4, soluble cynomolgus GPNMB (recombinant …)
Test: SPR Biacore, IgG captured
Experimental: as §1, §2, §3

| Kd [nM] | koff [s⁻¹] | kon [M⁻¹ s⁻¹] | Binder |
| --- | --- | --- | --- |
| 67.8 | 0.0057 | 83000 | B6 |
| 3.2 | 0.00025 | 77000 | B1 |
| 6.5 | 0.00051 | 78000 | B2 |
| 8.3 | 0.0006 | 71000 | B3 |
| 10.6 | 0.00071 | 67000 | B4 |
| 13.5 | 0.0022 | 160000 | B5 |

biological target: T1, full-length untagged human GPNMB …; test: FACS titration, FS293-huGPNMB+ cells
Experimental: Affinity matured anti-GPNMB antibodies of the present disclosure were examined to determine their ability to bind human and mouse GPNMB expressed on FS293-huGPNMB+ or B16F10 cells, respectively. Cell-based affinity measurements were performed to ascertain the apparent affinities of anti-GPNMB antibodies to cell-surface expressed GPNMB. Serial dilutions of anti-GPNMB antibodies of the present disclosure were added to 100,000 FS293-huGPNMB+ or B16F10 cells and allowed to achieve binding equilibrium at 4° C. After addition of fluorescently labeled secondary antibody and brief washing steps, MFI values as a function of titrated antibody concentration were recorded via FACS analysis. Equilibrium binding curves were fit using nonlinear regression analysis with Graphpad Prism 6 software.

| EC50 [nM] | Binder |
| --- | --- |
| 0.652 | B1 |
| 0.186 | B2 |
| 0.181 | B3 |
| 0.568 | B4 |

biological target: T1, full-length untagged human GPNMB …; test: cell-based or functional assay; remark: another data set of the same source

| EC50 PDL1 [nM] | Fold Increase CD40 (max response at 1 µg/ml) [fold] | Fold Increase PDL1 (max response at 1 µg/ml) [fold] | Binder |
| --- | --- | --- | --- |
| 1.36 | 1.59 | 1.99 | B6 |
| 0.58 | 1.72 | 1.9 | B1 |
| 1.14 | 1.72 | 1.88 | B2 |
| 0.7 | 1.74 | 1.97 | B3 |
|  | 1.87 | 2.18 | B4 |
| 1.94 | 2.29 | 4.6 | B5 |
